These are literature values, as cited in US9173901B2, “Compositions and methods of using lamellar bodies for modifying linear biological macromolecules” (LAMELLAR THERAPEUTICS LIMITED, priority 2004, dated 2015).

In the series the test system is CF patients. To be noted: young patients with mild lung disease; six months course.

B1: rhDNAse: recombinant human DNAse, marketed for thinning CF secretions (protein, UniProt P24855 23-282, looked up)
Deoxyribonuclease-1: LKIAAFNIQTFGETKMSNATLVSYIVQILSRYDIALVQEVRDSHLTAVGKLLDNLNQDAPDTYHYVVSEPLGRNSYKERYLFVYRPDQVSAVDSYYYDDGCEPCGNDTFNREPAIVRFFSRFTEVREFAIVPLHAAPGDAVAEIDALYDVYLDVQEKWGLEDVMLMGDFNAGCSYVRPSQWSSIRLWTSPTFQWLIPDSADTTATPTHCAYDRIVVAGMLLRGAVVPDSALPFNFQAAYGLSDQLAQAISDHYPVEVMLK
Take B1: the “benefit in FEVI” value is listed as 3% and the “decrease in frequency of intravenous antibiotic courses” value is reported as 34%.
